Measurements published in patent publication US20260139007A1 (SANFORD BURNHAM PREBYS MEDICAL DISCOVERY INSTITUTE, published 2026).
Bridge positions count the residues as written; N and C are the ends. Square brackets hold non-standard residues; d marks the D form. Ends that are not written are not given here. βAla = NCCC(=O)O

Columns and labels:
[1] = target: T1, EphA4 Fc (human EphA4 Fc, #CJ75, Novoprotein, or mouse EphA4 Fc, #641-A4, R&D Systems/BioTechne) (human or mouse, UniProt P54764 20-547); assay: competition ELISA, inhibition of ephrin-A5 AP binding to immobilized EphA4 Fc
T1 construct: extracellular domain; bought reagents; also called EphA4 extracellular domain fused to the Fc portion of an antibody; not shown: Fc portion of an antibody

[2] = target: T1, EphA4 Fc (human EphA4 Fc, #CJ75, …); assay: competition ELISA, ephrin-A5 AP on immobilized EphA4 Fc, with and without 20 mg/mL BSA
[3] = target: T1, EphA4 Fc (human EphA4 Fc, #CJ75, …); assay: competition ELISA, inhibition of ephrin-A5 AP binding to immobilized EphA4 Fc, with 20 mg/ml BSA

T1 sequence (P54764 20-547): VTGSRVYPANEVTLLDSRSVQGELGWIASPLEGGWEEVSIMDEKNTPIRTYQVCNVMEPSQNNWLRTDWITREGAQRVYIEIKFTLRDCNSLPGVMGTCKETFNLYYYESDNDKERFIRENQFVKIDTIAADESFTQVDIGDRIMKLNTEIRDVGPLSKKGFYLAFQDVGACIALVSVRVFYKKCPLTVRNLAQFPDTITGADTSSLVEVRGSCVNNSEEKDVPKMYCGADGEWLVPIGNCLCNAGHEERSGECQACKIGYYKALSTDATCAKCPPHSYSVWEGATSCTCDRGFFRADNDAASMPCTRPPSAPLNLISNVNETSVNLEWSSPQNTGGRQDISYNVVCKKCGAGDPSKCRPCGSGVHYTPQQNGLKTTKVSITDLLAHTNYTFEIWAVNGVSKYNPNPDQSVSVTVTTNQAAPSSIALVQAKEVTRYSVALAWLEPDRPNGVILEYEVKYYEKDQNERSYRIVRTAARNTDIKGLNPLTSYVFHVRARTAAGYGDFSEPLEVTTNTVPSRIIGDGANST

- IC50 [1]: 18 nM
- fold decrease in potency with BSA against buffer [2]: ~8 fold
- IC50 [3]: 130 nM
B1: compound 21 (peptide)
peptide: [βAla]PYCVYR[βAla]SWSCRLIEDICLPRWGCLWEDD-NH2
modifications: disulfide 4-12, 19-25; N-terminus assumed
SMILES: CC[C@H](C)[C@H](NC(=O)[C@H](CC(C)C)NC(=O)[C@H](CCCNC(=N)N)NC(=O)[C@@H]1CSSC[C@H](NC(=O)[C@H](Cc2ccc(O)cc2)NC(=O)[C@@H]2CCCN2C(=O)CCN)C(=O)N[C@@H](C(C)C)C(=O)N[C@@H](Cc2ccc(O)cc2)C(=O)N[C@@H](CCCNC(=N)N)C(=O)NCCC(=O)N[C@@H](CO)C(=O)N[C@@H](Cc2c[nH]c3ccccc23)C(=O)N[C@@H](CO)C(=O)N1)C(=O)N[C@@H](CCC(=O)O)C(=O)N[C@@H](CC(=O)O)C(=O)N[C@H](C(=O)N[C@H]1CSSC[C@@H](C(=O)N[C@@H](CC(C)C)C(=O)N[C@@H](Cc2c[nH]c3ccccc23)C(=O)N[C@@H](CCC(=O)O)C(=O)N[C@@H](CC(=O)O)C(=O)N[C@@H](CC(=O)O)C(N)=O)NC(=O)CNC(=O)[C@H](Cc2c[nH]c3ccccc23)NC(=O)[C@H](CCCNC(=N)N)NC(=O)[C@@H]2CCCN2C(=O)[C@H](CC(C)C)NC1=O)[C@@H](C)CC
notes: also called peptide 21
